Experimental data published in publication PMC4428439.

Molecular target: IraP with a C-terminal His10-tag, purified (E. coli) (UniProt P0AAN9)
Sequence (P0AAN9 whole entry): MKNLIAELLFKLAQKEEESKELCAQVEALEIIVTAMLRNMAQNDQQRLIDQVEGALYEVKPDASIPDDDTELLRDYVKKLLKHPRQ

## RssBN, N-terminal domain of RssB (residues 1-129), untagged, purified (from UniProt P0AEV1 1-129) (domain or fragment)
  rate of σ^S turnover in the presence of IraP and AcP with a 5-fold excess of RssBN (Figure S4): 2 fold
